The koff is the rate constant with which the complex falls apart. As usually defined, the Kd is a measure of binding affinity in units of concentration.

The results in this text go back to paper PMC9288512 (2022).

The target of assay [1] is T1, recombinant human proprotein convertase subtilisin/kexin 9 (hPCSK9), his-tagged (human, UniProt Q8NBP7 153-692). As to the kind of experiment: SPR. (Surface plasmon resonance follows binding to a sensor surface in real time, without labels.)
In assay [2] the target is T1, recombinant human proprotein convertase …. As to the kind of experiment: SPR. This is another data set of the same source.

T1 sequence (Q8NBP7 153-692): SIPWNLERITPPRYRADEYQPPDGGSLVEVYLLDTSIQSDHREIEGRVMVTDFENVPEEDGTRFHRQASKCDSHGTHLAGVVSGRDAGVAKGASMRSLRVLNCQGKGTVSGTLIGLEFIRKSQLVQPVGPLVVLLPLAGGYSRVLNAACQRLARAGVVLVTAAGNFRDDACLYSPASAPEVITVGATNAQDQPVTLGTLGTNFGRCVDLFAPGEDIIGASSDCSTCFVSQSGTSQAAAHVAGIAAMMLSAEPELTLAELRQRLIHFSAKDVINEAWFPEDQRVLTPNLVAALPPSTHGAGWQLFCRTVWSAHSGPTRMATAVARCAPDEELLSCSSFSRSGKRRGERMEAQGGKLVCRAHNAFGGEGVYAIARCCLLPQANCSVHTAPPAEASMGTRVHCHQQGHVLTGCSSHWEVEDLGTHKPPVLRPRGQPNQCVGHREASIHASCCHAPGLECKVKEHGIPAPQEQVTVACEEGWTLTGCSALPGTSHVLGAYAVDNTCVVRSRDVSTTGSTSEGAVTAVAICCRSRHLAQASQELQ

B1: VHH-B11 (monovalent camelid nanobody against hPCSK9) (VHH)
VHH: QVQLQESGGGSVQAGGSLRLSCTVSGYTYSSNCMGWFRQAPGKEHEGVASIYIGGGSTYYADSVKGRFTISQDNAKNTVYLQMNSLKPEDTAMYYCAVGCQGLVDFGYWDQGTQVTVSS
In the case of B1, in assay [1], the koff turned out to be 0.000174 s⁻¹. Also, the Kd in assay [2] is ~5.01 nM.

B2: Llama VHH-human IgG4 hinge linker-IgG4 Fc chimeric HcAb (VHH-B11-Fc) (Fc fusion)
chain: QVQLQESGGGSVQAGGSLRLSCTVSGYTYSSNCMGWFRQAPGKEHEGVASIYIGGGSTYYADSVKGRFTISQDNAKNTVYLQMNSLKPEDTAMYYCAVGCQGLVDFGYWDQGTQVTVSS
For B2, in assay [1], the koff worked out at 0.00123 s⁻¹. The Kd in assay [2] came to 0.689 nM.
